This is an account of results in publication PMC6805997 (mBio, 2019).

The target in experiment [1] is T1, recombinant IsdB (iron-regulated surface determinant protein B), without signal peptide and sorting signal (Staphylococcus aureus, UniProt A6QG30).
T1 construct: source: E. coli BL21(DE3), pET15b, purified (HiTrap Talon column)
Put plainly: ELISA. Particulars: both partners purified. Background: An ELISA detects its analyte on a solid surface through an enzyme-linked reagent.

The target in experiment [2] is T1, recombinant IsdB (iron-regulated …). Put plainly: BLI. Particulars: both partners purified.

T1 sequence (A6QG30 41-613): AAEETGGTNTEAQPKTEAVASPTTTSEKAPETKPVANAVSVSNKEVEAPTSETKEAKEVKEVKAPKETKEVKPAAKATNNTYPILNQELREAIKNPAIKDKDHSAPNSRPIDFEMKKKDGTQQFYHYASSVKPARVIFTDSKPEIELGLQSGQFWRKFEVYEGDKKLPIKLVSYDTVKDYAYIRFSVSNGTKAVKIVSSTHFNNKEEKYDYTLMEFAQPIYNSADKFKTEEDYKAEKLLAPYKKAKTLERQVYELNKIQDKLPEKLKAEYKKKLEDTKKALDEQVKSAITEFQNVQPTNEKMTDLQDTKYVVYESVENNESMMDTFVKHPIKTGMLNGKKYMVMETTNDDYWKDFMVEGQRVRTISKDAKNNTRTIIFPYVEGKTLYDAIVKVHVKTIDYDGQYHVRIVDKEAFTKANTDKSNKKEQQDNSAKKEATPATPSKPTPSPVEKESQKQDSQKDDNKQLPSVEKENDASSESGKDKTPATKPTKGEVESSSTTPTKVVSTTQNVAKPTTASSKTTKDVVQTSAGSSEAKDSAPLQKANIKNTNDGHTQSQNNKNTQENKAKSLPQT

B1: STAU-399 clonal variant 6 (recombinant mAb) (antibody, V domains shown)
VH: HVQLVQSGAEVKKPGSSLKVSCKGSGGKLRGYGFSWGRQAPGQGLEWMGVIIPIFGAPTYAQKFQGRVTLAADESNNTVFMELSSLRSEDTAVYYCARDWPSITVAVDATNYGMDVWGQGTTVTVSS
VL: QSALTQPRSVSGSPGQSVTISCTGTSNDVGYYDHVSWYQQHPGKAPKFIIYDVSKRPSGVPDRFSGSKSDNTASLTISGLQAEDEADYYCCSFAGSYTYVFGTGTKVTVL
notes: source: expressed recombinantly with the original light chain and purified
B1: the “fold lower EC50 value than the hybridoma IgG” value in experiment [1] came out at 18 fold. Moreover, the “fold lower affinity than the hybridoma IgG” value in experiment [2] turned out to be 27 fold.

B2: STAU-399 mAb (hybridoma IgG) (antibody, V domains shown)
VH: QVQLVQSGAEVKKPGSSLKVSCKVSGGNLRSYGISWVRQAPGQGLEWMGVIIPIFGTPTYAQKFQGRVTLAADDSNNIVFMELSSLRSEDTAVYYCARDWPSITVAVDATNYGMDVWGQGTLVTVSS
VL: QSALTQPRSVSGSPGQSVTISCTGTSNDVGYYDHVSWYQQHPGKAPKFIIYDVSKRPSGVPDRFSGSKSDNTASLTISGLQAEDEADYYCCSFAGSYTYVFGTGTKVTVL
notes: also called STAU-399 IgG
With B2, the binding result in experiment [2] is “binds”.

B3: STAU-229 clonal variant 3 (recombinant mAb) (antibody, V domains shown)
VH: EVQLVQSGAEVKKPGATVKIPCQVSGYTFTDYYIHWVQQAPGKGLEWMGLVDPEDGETRYAEKFQGRVTITADTSTDTAYMEMSSLTSEDAAVYYCAKPHCTTSSCQRVSGYYFGMDVWGQGTTVTVSS
VL: QSALTQPPSASGSPGQSVTISCTGSSNDVGDYNFVSWYQQHPGKPPKLMIYEVTKRPSGVPDRFFGSKSGNTASLTVSGLQADDEADYYCSSYAGGNSVVFGGGTKLTVL
notes: as for B1
In general, Kd refers to the equilibrium constant for the complex coming apart. In the case of B3, in experiment [2], the Kd is 1.44 nM and the “fold lower avidity than the hybridoma IgG” value was roughly 7 times.

B4: STAU-229 mAb (hybridoma cell line-expressed IgG) (antibody, V domains shown)
VH: EVQLVQSGAEVKKPGATMKISCKVSGYPFTDYYMHWVQQAPGKGLEWMGLIDPEDGETNYAEKFQGRVTITADTSTDTVYMELSSLRSEDTAVYFCAKPHCSSRTCQRVSGYYFGMDVWGQGTLVTVSS
VL: QSALTQPPSASGSPGQSVTISCTGSSNDVGDYNFVSWYQQHPGKPPKLMIYEVTKRPSGVPDRFFGSKSGNTASLTVSGLQADDEADYYCSSYAGGNSVVFGGGTKLTVL
notes: also called STAU-229 IgG; hybridoma IgG
For the molecule B4, the binding result in experiment [2] was “binds”.

B5: STAU-307 clonal variant 1 (antibody, V domains shown)
VH: QAQLMQSGAEVKKTGSSVKVSCTASGGTFNTNDLMWVRQAPGQGLEWMGGIVPVFGKPKYAKKFHGRLIITADEYMTTVYMELTSLTFDDTAIYFCARSGSTESPIQDIDFWGQGTQVTVSS
VL: SYVLTQPPSVSVAPGQTATITCGGDNIATFSVHWYRQKPGQAPVLVVYDDLDRASGIPARFSGSNSGNTATLTISRVEPGDEADYFCQVWEISSDEYVFGPGTSVTVL
notes: also called Variant 1 (STAU-307)
Take B5: the binding result in experiment [2] is recorded as “binds”.

B6: STAU-281 mAb (IgG) (antibody, V domains shown)
VH: QVQLVQSGAEVKRPGSSVRVSCKDSGDSFRRYVINWVRQAPGQGLEWMGGIIPIFDKAKSVQKFQDRLTITADESTSTSYMELSSLTSEDTAVYYCARKEDGRRDDVFDIWGQGTLVTVSS
VL: EIVMTQSPATLSVSLGERATLSCRASHSVGSSLAWYQQKPGLAPRLLIYGVSTRATGIPARFSGSGSATEFTLTISSLQSEDLAAYHCQQYDNWPFTFGQGTKLEIK
Regarding B6, the binding result in experiment [2] was “binds”.
